Data on one protein can be found in paper PMC4939424, “Phosphatidylinositol 3-Kinase-Associated Protein (PI3KAP)/XB130 Crosslinks Actin Filaments through Its Actin Binding and Multimerization Properties In Vitro and Enhances Endocytosis in HEK293 Cells” (Frontiers in Endocrinology, 2016).

This series concerns the molecule itself. Nature of the series: native gel or EMSA; blue native (BN)-PAGE of immuno-purified FLAG-PI3KAP/XB130 on NativePAGE Novex Bis-Tris gels, immunoblot with anti-FLAG antibody. On the technique in general: A gel shift assay detects complexes by their altered migration in electrophoresis.

B1: FLAG-tagged recombinant full-length PI3KAP/XB130 (natural protein, mouse, UniProt Q5DTU0-2 1-843, looked up)
chain: MERYKAQGCCCLVVQRRILQVSASLEQLLTELDDFLKVLDQENLSSAAVLKKSGLSELLRLYTKSSSSDEEYIYMNKVSVNGEQNSASPDKVPEEQGPLTNGEPSQHSSAPQKSLPDLPPPKMIPERKQPTVPKIESPEGYYEEAEPFDRSINEDGEAVSSSYESYDEDENSKGKAAPYQWPSPEASIELMRDARICAFLWRKKWLGQWAKQLCVIRDTRLLCYKSSKDHSPQLDVNLRGSSVVHKEKQVRKKGHKLKITPMNADVIVLGLQSKDQAEQWLRVIQEVSGLPSEGASEGNQYTPDAQRLNCQKPDIAEKYLSAAEYGITINGHPEIPETKDVKKKCSAGLKLSNLMNLGRKKSTSLEPPERSLETSSYLNVLVNSQWKSRWCFVRDSHLHFYQDRNRSKVAQQPLSLVGCDVLPDPSPDHLYSFRILHNGEELAKLEAKSSEEMGHWLGLLLSESGSKTDPEELTYDYVDAERVSCIVSAAKTSLLLMQRKFSEPNTYIDGLPSRDCQDDLYDDVEVSELIAVVEPAEEAAPAVDANSGSEPDRVYLDLTPVKSFLHSSSEAQAQASLPAVPHQDDVAETLTVDPKPGTTPEEPHTESPGDPEVQQRQPEVQESSEPIEPTPRITMVKLQAEQQRISFPANCPDTMASAPIAASPPVKEKLRVTSAEIKLGKNRTEAEVKRYTEEKERLERSKEEIRGHLAQLRREKRELKETLLRCTDKGVLAKLEQTLKKIDEECRMEESRRVDLELSIMEVKDNLKKAEAGPVTLGTTVDTTHLDNMSPRPQPKAATPNPPPDSTPVNSASVLKNRPLSVMVTGKGTVLQKAKEWEKKGAS
notes: also called FLAG-PI3KAP/XB130; FLAG-PI3KAPXB130; source: HEK293T, transfected (pShuttle2): purified with anti-FLAG M2 agarose and eluted with FLAG peptide; also in lysate (co-immunoprecipitation)
In the case of B1, the binding result is given as “binds”.
